Here are results for one molecule from patent US20240033291A1 (CELLENGENE, published 2024).

The target in the assay is human mesothelin protein (MSLN antigen, Acro Biosystems) (human, UniProt Q13421 37-622). As to the kind of experiment: ELISA, coated human mesothelin 1 ug/mL, purified scFv serially diluted, anti-StrepMAB HRP. A general note: In an ELISA, binding on a coated surface is turned into a signal by an enzyme label.
human mesothelin protein (MSLN antigen, Acro Biosystems), sequence (Q13421 37-630): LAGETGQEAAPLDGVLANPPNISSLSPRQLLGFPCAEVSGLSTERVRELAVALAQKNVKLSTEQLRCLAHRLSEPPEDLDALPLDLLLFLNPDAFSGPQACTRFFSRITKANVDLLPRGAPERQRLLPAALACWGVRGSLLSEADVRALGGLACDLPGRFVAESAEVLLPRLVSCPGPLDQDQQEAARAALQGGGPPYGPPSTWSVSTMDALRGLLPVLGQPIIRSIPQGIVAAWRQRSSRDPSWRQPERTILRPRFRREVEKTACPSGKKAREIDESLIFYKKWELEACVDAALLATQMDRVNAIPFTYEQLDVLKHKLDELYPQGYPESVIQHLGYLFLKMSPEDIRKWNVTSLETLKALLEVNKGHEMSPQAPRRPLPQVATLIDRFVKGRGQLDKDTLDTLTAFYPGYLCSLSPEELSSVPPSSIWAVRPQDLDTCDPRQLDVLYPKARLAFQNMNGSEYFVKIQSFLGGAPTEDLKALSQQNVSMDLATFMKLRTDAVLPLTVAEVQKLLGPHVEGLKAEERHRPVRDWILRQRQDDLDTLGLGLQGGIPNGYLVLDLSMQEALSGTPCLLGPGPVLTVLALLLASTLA

B1: anti-MSLN-scFv antibody MSLN3 (purified scFv) (scFv)
chain: EVQLVESGGGLVQPGGSLRLSCAASGFTFSDYAMSWVRQAPGKGLEWVSAISSSGGTTYYADSVKGRFTISRDNSKNTLYLQMNSLRAEDTAVYYCAKEEEGEWREYFDVWGQGTLVTVSSGGGGSGGGGSGGGGSDIQMTQSPSSLSASVGDRVTITCRASQSISSYLNWYQQKPGKAPKLLIYATSTLQSGVPSRFSGSGSGTDFTLTISSLQPEDFATYYCQQSYTFPYTFGQGTKVEIKAST
With B1, the EC50 amounted to 145 nM.

What is called EC50 is the midpoint of the concentration-response curve.
